According to the DeepSol protein solubility set:

Assay: soluble on expression in E. coli; label from the status in PepcDB or PDB records

Row | Sequence | soluble on expression in E. coli
1 | MRNVELIFIPTPTVGHLVPFLEFARRLIEQDDRIRITILLMKLQGQSHLDTYVKSIASSQPFVRFIDVPELEEKPTLGSTQSVEAYVYDVIERNIPLVRNIVMDILTSLALDGVKVKGLVVDFFCLPMIDVAKDISLPFYVFLTTNSGFLAMMQYLADRHSRDTSVFVRNSEEMLSIPGFVNPVPANVLPSALFVEDGYDAYVKLAILFTKANGILVNSSFDIEPYSVNHFLQEQNYPSVYAVGPIFDLKAQPHPEQDLTRRDELMKWLDDQPEASVVFLCFGSMARLRGSLVKEIAHGLELCQYRFLWSLRKEEVTKDDLPEGFLDRVDGRGMICGWSPQVEILAHKAVGGFVSHCGWNSIVESLWFGVPIVTWPMYAEQQLNAFLMVKELKLAVELKLDYRVHSDEIVNANEIETAIRYVMDTDNNVVRKRVMDISQMIQRATKNGGSSFAAIEKFIYDVIGIKP | soluble
2 | SSAEQSFLFSREEADTLRLKVEELEGERSRLEEEKRMLEAQLERRALQGDYDQSRTKVLHMSLNPTSVARQRLREDHSQLQAECERLRGLLRAMERGGTV | soluble
3 | MPAWAARLGASRDQQRALEEERSRTQAALQVMPHMLIELDADERLLRGHPGWLDRLPTLGPMAPGQGLQDFLPVDLATEVRRVLAEVETTGAPVSRDWQVRQAGARVWLAISAARLPPLA | not soluble
4 | MASKKISLTKPKYQQIAVDVAEKIAEGKLHVGDKIHARSTLANQYQVSPETARKAIIVLVDLEIVKAKHGSGFYVASKEKAQDFVTQYQDVQTIAEIKEELLDSVAKQKEELTHFSSILDTLVEQTKRFDSFNPMNPYSLVLTEEAAYLEATISEMNFWQNTSATIIAIKHKEELLVSPGPYAKISLNDTLYFVGHDESTLQRVQNFFYP | not soluble
5 | MYINVVKCMWKQIKHRFEGYPSRMYVARKIIDLGFRIDRNGKIYCDDVEISDVALARAVGVDRRTVRATANTILEDEKLRGIFENMMPAGALLRDAAGELDFGVVEIEADARNPGILAAAARLIADKGISIRQAHAGDPELDETPRLTIITETPIPGGLLKDFLKIDGVKRVSIY | soluble
6 | VEQELATKMLQIQSKRFYLDVKQNRRGRFIKVAEIGADGRRSQIYLALSTAAEFRDHLSSFSDYYASLGPPNTDNLPEDGKLKSEMMIKDYRRYYLDLKENARGRFLRVSQTITRGGPRSQIALPAQGMIEFRDALTDLLEEFGAN | soluble
7 | GHMKGLTEKLMILSHQSIKNLLGKVILNYSEENVRENGYDLRICGDKYYELVQGAELPEKKATLREIEFKERAILSANHTYLFESCEEFNMPADLAVLITLKSTLARNGFLAPPTVIDAGYKGKVNVAITAVYNSSLKKGMATHHLIFLKLDKPTERLYNGKYQGGILI | soluble
8 | MKDRELLAKSITTKDAVSDGRESPSLLSDKLSRLPWSTLYASVFCAGVLLLPFSGQAVEPPVAAKASENKNQLKTLQQDIAEKEKSVQQQKKQRSSLLDQLKQQENTISQTSRSLRETQAALAELSKDIASLTTSIEKLQNQQSQQQSILSKQLAAAFKQGKHSSLQLILSGEESQRSERILAYFSYLNEARQKAIEELKQTRTTLSAEKKMLEQKQNQHKALLDEQKAQQQKLEQARIARQKTLTSLEASLEKDQQSLAELKLNESRLRDQIAKAEREAKARAEREAKEAARVREQVKVKEQQAKKTGSSYKPSESERSLMARTGGLGRPGGQALWPVRGNVSHRFGEPLQGELRWKGMVITAPEGSEVKAIADGRVLLADWLQGYGLVVVIEHGKGDMSLYGYNQSALVNVGAQVKAGQPIALVGTSGGQGEPSLYFEIRRQGQAVNPQPWLGR | not soluble
9 | MKKIAIFAGDGIGPEIVAAARQVLDAVDQAAHLGLRCTEGLVGGAALDASDDPLPAASLQLAMAADAVILGAVGGPRWDAYPPAKRPEQGLLRLRKGLDLYANLRPAQIFPQLLDASPLRPELVRDVDILVVRELTGDIYFGQPRGLEVIDGKRRGFNTMVYDEDEIRRIAHVAFRAAQGRRKQLCSVDKANVLETTRLWREVVTEVARDYPDVRLSHMYVDNAAMQLIRAPAQFDVLLTGNMFGDILSDEASQLTGSIGMLPSASLGEGRAMYEPIHGSAPDIAGQDKANPLATILSVAMMLRHSLNAEPWAQRVEAAVQRVLDQGLRTADIAAPGTPVIGTKAMGAAVVNALNLKD | soluble
10 | MGSDKIHHHHHHMSTPTRIITSKDIETGKHISPAQRLRIMNADEWEEFIEEWTDSLKKEYFKVERLGGAGDKGRDIVAQLENAEIWDNYQCKHYGHSLRPSDIWTEIGKLVYYTAIGDFTCPRKYFFIAPLGVGTSLSDLLKNPRKLVQGLRENWDKYCKDKITQNCLIKLSDMEPQLEKIDFSIFGYVTPLTIIEQHRKTPHFITRFGGGLPKREIPPEPPIKSTSEESEYLKKILQAYSDFNKQDISTIDDVTDIDLTEHYKDSRIQFYSAEALKRFSRDALPENEFKLLQQEFLNGIKDEIRNPVHANGYLRLLEVVKVARALQITSHALIDCLMVNDRGGICHQLANDNESIAWAKNG | not soluble
11 | MGSDKIHHHHHHMINREIAVKVQHVSKTFKLPTEATKSFRTTLVNRLRGIKGFTEQHVLKDINFDVYKGDFFGIVGRNGSGKSTLLKIISQIYVPEKGQVTVDGKMVSFIELGVGFNPELTGRENVYMNGAMLGFTKDEVDDMYNDIVDFAELHHFMNQKLKNYSSGMQVRLAFSVAIKAQGDVLILDEVLAVGDEAFQRKCNDYFMERKDSGKTTILVTHDMGAVKKYCNRAVLIEDGLVKAYGEPFDVANQYSVDNTETAEDAMNAEKISVSDIAKDLKVSLISNPRITPNDTITFEVSYEVLKDDFTYIAFSLTDIDRNIWVYNDNSLDYPTQGIGRKCISYQCQLSQLNDIKLKLEVTVRDKNGQMLLFSTAEQSPQIVIQRNDIDQDDLSALDSASGLYQRNGKWVFH | not soluble
12 | HGIQLLGYARKILRFNDEACSSLMFSNLQGVLTIGASDESADTILPFLLNRVSSVYPKLALDVRVKRNAYMAEMLESQEVDLMVTTHRPSAFKALNLRTSPTHWYCAAEYILQKGEPIPLVLLDDPSPFRDMVLATLNKADIPWRLAYVASTLPAVRAAVKAGLGVTARPVEMMSPDLRVLSGVDGLPPLPDTEYLLCYDPSSNNELAQVIYQAMESYHNPWQYSPMSAPEGDDSLLIERDIE | soluble
13 | NTLGMALYADGGLMASKPYAASGKYIHRMSNFCQSCYYNPNDLLGEKACPFNALYWNFLHQNQEKLKDNPRLRYAYMNWQKMDFDKQKKTIHKAQRILADLDSANL | not soluble
14 | MRPDLSRVPGVLGEIARKRASEVAPYPLPEPPSVPSFKEALLRPGLSVIAEVKRQSPSEGLIREVDPVEAALAYARGGARAVSVLTEPHRFGGSLLDLKRVREAVDLPLLRKDFVVDPFMLEEARAFGASAALLIVALLGELTGAYLEEARRLGLEALVEVHTERELEIALEAGAEVLGINNRDLATLHINLETAPRLGRLARKRGFGGVLVAESGYSRKEELKALEGLFDAVLIGTSLMRAPDLEAALRELVG | soluble
15 | MALNNFLTFQLLLLLLRVSSESPWIVAGDVSRIPINFLELAKSPEVFDSMVRIRRKIHENPELGYEEFETSKFIRSELDLIGVKYRFPVAITGIIGYIGTGEPPFVALRADMDALPIQEAVEWEHKSKNPGKMHACGHDGHVAMLLGAAKILQQHRQHLQGTVVLIFQPAEEGLSGAKMMREEGALKNVEAIFGIHLSPRTPFGKAASLAGSFMAGAGAFEAVITGKGGHAAIPQHTIDPVVAASSIVLSLQHLVSRETDPSDSKVVTVTKVNGGNAFNVIPDSITIGGTLRAFTGFTQLQERIKEIITKQAAVHRCNASVNLAPNGNQPMPPTVNNMDLYKKFKKVVRDLLGQEAFVEAVPEMGSEDFSYFAETIPGHFSLLGMQDETQGYASSHSPHYRINEDVLPYGAAIHATMAVQYLKDKASKGSVSGFHDEL | soluble
16 | MAHHHHHHMESAIGLSVPLYQPHAPAPGAVIDPDMVEDHVSFLRTVRAFHDYKRQALAAREMRCTNFRKLQDQHRHLLCIDLDKILEKYLECIKVNSAFFDAICEASEELFDSYWPEGTTVFMKEVPPPTPLDMNKVFSTLRQFVRDWSAEGVAERDCVYKPILDTLDRCFPNRSERENVRVLIPGAGLCRLSVELALHGFFAQANEFSYHMLIAGHYIQNHVFESCQHKIYPYSDSTCNLVNRADQFAEVQIPDLCASEAIDALRDKGLSFGQLSMVAGDFTEVYAKPHQHKTWSVVATCFFIDTAHNIIEYLVIIYNLLVPGGYWVNVGPLLYHFADSADDMSIELSLGEVLTVAQRIGFVLNGPPSFIDTTYTNNQRSMKQLVYRCAFFVLQRPLADRQTEQMDRNVEAKVT | not soluble
17 | GPGSMDAIHILKENALRLVSAGQPISALHLVEVLCELQPDSDENRSLKIRCLYELREFDSVLKLAKQVTFACDQNSEVFLLAVKAAFELGDLKTCVQYAMTLINADSSKVVAMCFVAKAAELSGDPAKAVRFYKMALEADPFCGEAFSALTERHLLDRWEMLKLIDSLCIPAEVEVYRSTLKARIGSDYLTPGISGVPRTLVLLAGAKKEYESNNLRQALSLTTEILEVEPYHRQTLCLHLCILVDSKATPLLFEKAHFLSKNKCYTELAVYAIGCFYYSLSNYERAGRYFSRASELDCYFAEAWVAYGHCYAKLEEGEQALNVYRRTMNFFPGLNACCTYVGMQYSRVNQRSVARCFFEESLRKNSIDPLVLNELGVLALAEDNPKQALELFQKAYDSLPNRENPSEHSDCILFNLATMYRKLGRYEAAIDYYNQYVRSRPNASHGHCALGFTYHLSGNIKAAISCYHTAESIKPDSFCRDLLRRALELDFGACGRLSWDSERPHLSFSPGEVSFSTVSRRFRSESTAADSVAASPPPRVGRSLDFQHQ | not soluble
18 | MKIIFLLFGFIFHPNNAQFDKSGVQQTLDAHNEFRSSIAKGTYVTKGLLHAPATNIMKMKWNVTIATAAQNHANKCPKGHDGPLEGVSGECMWSGHINASKGVNHLGAVAAKAWSSEYTKKGWETDVMSDEFFNSGVGHAIIMTWYSQVNVGCGVKLCQKEGDYQLAIVVCKYWGEGQGNGKIMYESGPTCSACPPNTTCDQATGLCDSKIPDIPEPIYKYDELVNSKPAYTVVMGFFLMIIVQLI | not soluble
19 | MARAIHVFRTPDRFVAGTVGQPGNRTFYLQAVHDSRVVSVVLEKQQVAVLAERIGALLFEVNRRFGTPVPPEPTEIDDLSPLIMPVDAEFRVGTMGLGWDSEAQSVVVELLAVTDAEFDASVVLDDTEEGPDAVRVFLTPESARQFATRSYRVISAGRPPCPLCDEPLDPEGHICARTNGYRRDVLLGSGDDPAG | soluble
20 | MGSDKIHHHHHHMTVSNPAKSIRIGTMISGNNGDAATRIREIAGLGFESFEPFFWQTTKGQNLAELGKRCVDAIGDRDITISTLGMFGNPLEETDIDLETLEGWKQCIDNAHHFGASCVAGFTGRLRGKVLTDSLPRYREIWSELAKRAADKGIRIAFENCAMDGNWQSGDWNIAHNPDAWELMFNETPDDNIGLEWEPCHQMVYLIDPLPQIRKWASKIFHVHGKDATIRWDVIREHGIFGKEPFVFMRTPGFGDSNWTNVISELRLAGYSGSIDIEGWHDPVYRDALEMTGQVHALNHLKQARGGDFIDEMAAYGGGDPSLK | not soluble
21 | EMKVLVPDTSVIVDGRLTQYLERLKEKVKVVVPEAVVAEIEHQANAGKAIGHTGLEELKKLREIANEGKILLEFYGERPDLWQIRRAKSGEIDNMVREVARELNGVLVTGDQIQRDIAIAKGIDVIYLEAKREPRMRLEDFFDEE | not soluble
22 | MTETTENVVITIPDKTSFTFHEAATSPSEGEEFVVGHFRELTVKISGSSTSREIKFYAVDENGEKTALSGTNKTDFQLGSSTLNTNEYWDFDIAGLFKVMFEVVSVTGDVTVKGIVVSLEHHHHHH | soluble
